Measurements reported in paper doi:10.1101/2025.09.11.675621, “Effects of Nanopore Confinement on the Conformational, Dynamical, and Self-Assembly Properties of an FG-Repeat Peptide” (bioRxiv, 2025).
Where two headings read alike, the source gives them in different places. Primed or numbered codes have the meaning given here. No end group written: not given here. *: point of attachment. MBPA″ = 4-maleimidobutylphosphonic acid, conjugated to the N-terminal cysteine, O=C1CC(*)C(=O)N1CCCCP(=O)(O)O; MBPA = 4-maleimidobutylphosphonic acid, O=C1CC(*)C(=O)N1CCCCP(=O)(O)O

B1: MBPA-C-FG30 (peptide)
chain: C(MBPA)FGNNKLTTFGSSTTSAPSFGTTSGGLFGNK-NH2
modifications: also: uniform 15N,13C labels at L6, S11, A16, F19, T22, G28 (LSAFTG) or G2, G10, G20, G29 (4G)

Assays:
[1] = Aggregation / fibril formation in free solution (TEM, solubility); type: physicochemical; conditions: 10 mM peptide, Bis-Tris buffer pH 6.5, after six days of incubation at 4° C, 24° C or 37° C
Method: Aggregated MBPA-C-FG30 for transmission electron microscopy (TEM) was prepared by dissolving 2.0 mg of purified and lyophilized MBPA-C-FG30-LSAFTG in 60 μl of 0.2 M Bis-Tris buffer (pH 6.5) to produce a 10 mM peptide solution. The solution was evenly divided into three 20 μl aliquots, each transferred into a 0.2 ml tube. The three tubes were incubated quiescently for 6 days at temperatures of 4° C, 24° C, and 37° C. After incubation, each sample was briefly vortexed, and 3 μl was withdrawn for subsequent TEM imaging, as described below.
Transmission electron microscope (TEM) images were acquired with an FEI Morgagni microscope, operating at 80 kV, and a side-mounted Advantage HR camera (Advanced Microscopy Techniques). TEM grids were lacey carbon on 300 mesh copper (Electron Microscopy Sciences), upon which carbon films were deposited by flotation. Solutions containing aggregated MBPA-C-FG30 were diluted 100-fold in H2O, then adsorbed in 10 μl aliquots to glow-discharged grids for 90 s. Grids were blotted, rinsed with H2O, blotted, rinsed again, blotted, and stained with 2% w/v uranyl acetate for 15 s before final blotting and drying in air.
Figure 5: TEM images of aggregated MBPA-C-FG30, negatively stained with uranyl acetate. […]

[2] = 4° C; thermodynamic, from 7.1 mM (23 mg/ml) solutions in Bis-Tris buffer pH 6.5 (printed 0.2 mM), incubated four days with brief bath sonication once per day; centrifuged 16,000 x g 15 min, 0.1 μm filter; absorbance at 260 nm, triplicate
Method: After incubation, solutions were centrifuged at 16,000 × g for 15 min, yielding visible pellets at each temperature. Supernatants were then passed through 0.1 μm centrifugal filters (Millipore Ultrafree, 0.5 ml volume) and diluted with H2O by factors of four. Peptide concentrations were determined from absorbance measurements at 260 nm, performed in triplicate, using an extinction coefficient of 1070 M^−1 cm^−1 that was determined from the absorbance of the initial solutions.

[3] = equilibrium solubility (centrifugation, filtration, absorbance of the supernatant at 260 nm); 7.1 mM solution in Bis-Tris buffer pH 6.5, 4 days at 4 °C with brief daily bath sonication; 16,000 x g 15 min, 0.1 um filter; monomer left over aggregates; conditions: other: equilibrium solubility (centrifugation, filtration, absorbance of the supernatant at 260 nm)
[4] = equilibrium solubility (centrifugation, filtration, absorbance of the supernatant at 260 nm); 7.1 mM solution in Bis-Tris buffer pH 6.5, 4 days at 24 °C with brief daily bath sonication; 16,000 x g 15 min, 0.1 um filter; monomer left over aggregates; conditions: other: equilibrium solubility (centrifugation, filtration, absorbance of the supernatant at 260 nm)
[5] = equilibrium solubility (centrifugation, filtration, absorbance of the supernatant at 260 nm); 7.1 mM solution in Bis-Tris buffer pH 6.5, 4 days at 40 °C with brief daily bath sonication; 16,000 x g 15 min, 0.1 um filter; monomer left over aggregates; conditions: other: equilibrium solubility (centrifugation, filtration, absorbance of the supernatant at 260 nm)

Molecule | morphology of aggregated material (negative-stain TEM) [1] | equilibrium solubility [2] [mM] | equilibrium solubility [3] [mM] | equilibrium solubility [4] [mM] | equilibrium solubility [5] [mM]
MBPA-C-FG30: C-FG30 with 4-maleimidobutylphosphonic acid conjugated to the N-terminal cysteine (C(MBPA″)FGNNKLTTFGSSTTSAPSFGTTSGGLFGNK-NH2; also: uniform 15N,13C labels at L6, S11, A16, F19, T22, G28 or at G2, G10, G20, G29 (FG30 numbering)) | straight, unbranched assemblies | 4.5 ± 0.2 | – | – | –
B1 | – | – | 4.5 ± 0.2 | 1.60 ± 0.04 | 1.92 ± 0.08
